Reference: article PMC11957415, “Size-exclusion chromatography–small-angle neutron scattering system optimized for an instrument with medium neutron flux” (Journal of Applied Crystallography, 2025)
One block for each binder: values may come before it.

What was measured:
[1] = target: T1, hydrogenated KaiC, phosphorylation mimic S431D (Synechococcus elongatus PCC 7942, UniProt Q79PF4 1-519, S431D); test: SEC; KaiB and KaiC mixed at a molar ratio of 12:6 and incubated at 303 K for 48 h; Superdex 200 Increase 10/300 GL, 0.5 mL/min; 98% D2O buffer with 50 mM sodium phosphate pH 7.8, 150 mM NaCl, 5 mM MgCl2, 0.5 mM EDTA, 1 mM DTT, 3 mM ATP, 50 mM glutamic acid, 50 mM arginine; conditions: both partners purified
T1 construct: Clock protein KaiC from Synechococcus elongatus PCC 7942, phosphorylation site S431 substituted with aspartate; KaiB and KaiC were mixed at a molar ratio of 12:6, and M from I(0) of hC alone is 334 ± 11 kDa; The buffer contained 3 mM ATP and 5 mM MgCl2; also called hC; h-KaiC; source: expressed and purified as previously described
T1 sequence (looked up): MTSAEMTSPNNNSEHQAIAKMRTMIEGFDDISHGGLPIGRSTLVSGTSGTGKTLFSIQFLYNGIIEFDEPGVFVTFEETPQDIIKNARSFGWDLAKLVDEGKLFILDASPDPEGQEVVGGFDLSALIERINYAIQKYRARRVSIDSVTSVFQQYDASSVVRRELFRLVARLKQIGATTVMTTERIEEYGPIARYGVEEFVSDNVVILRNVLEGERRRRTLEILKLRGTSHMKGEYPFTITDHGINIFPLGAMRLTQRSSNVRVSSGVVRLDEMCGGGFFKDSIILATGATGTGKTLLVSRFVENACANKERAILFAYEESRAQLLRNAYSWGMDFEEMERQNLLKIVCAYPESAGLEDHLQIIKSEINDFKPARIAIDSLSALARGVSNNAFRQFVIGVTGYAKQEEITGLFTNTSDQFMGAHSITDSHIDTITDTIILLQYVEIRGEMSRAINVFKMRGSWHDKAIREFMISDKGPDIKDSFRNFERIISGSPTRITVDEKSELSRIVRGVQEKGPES

[2] = target: T1, hydrogenated KaiC, phosphorylation …; test: SEC-SANS; BC complex fraction from SEC stored in the SANS cell (stopping mode), 298 K, 98% D2O clock protein buffer; compared with hC alone; conditions: both partners purified

- binding result [1]: binds
B1: 71% deuterated KaiB (natural protein, Synechococcus elongatus PCC 7942, UniProt Q79PF5 1-102, looked up)
chain: MSPRKTYILKLYVAGNTPNSVRALKTLKNILEVEFQGVYALKVIDVLKNPQLAEEDKILATPTLAKVLPLPVRRIIGDLSDREKVLIGLDLLYGELQDSDDF
modifications: partially deuterated; degree of deuteration 71% (MALDI-TOF mass spectrometry)
notes: Clock protein KaiB from Synechococcus elongatus PCC 7942; also called 71dB; 71d-KaiB; source: bacterial cells grown in M9 minimal H2O/D2O mixture media with hydrogenated and deuterated glucose, purified

- binding result [2]: binds
B2: hydrogenated KaiB (natural protein, Synechococcus elongatus PCC 7942, UniProt Q79PF5 1-102, looked up)
chain: B1 chain
notes: Clock protein KaiB from Synechococcus elongatus PCC 7942; also called hB; h-KaiB; source: expressed and purified as previously described
